Data reported in publication PMC5618221.

How the values were obtained:
[1] = target: Hbl B in culture supernatant of B. cereus strain MHI 1532 (Bacillus cereus strain MHI 1532 (endogenous in culture supernatant)) (UniProt P80172); test: co-IP
[2] = target: recombinant Hbl L1 (haemolysin BL component L1) (Bacillus cereus strain F837/76); test: SPR; BIACORE 3000; rHbl L1 amine-coupled to CM5 chip (560 RU); rHbl L2 or B injected 7.8 nM to 2 uM at 30 uL/min, 20 °C, in PBS, 1 mM DTT, 0.005% Tween 20; KD from steady state, one-site model, mean of three (L2) or four (B) experiments; L1 + B did not reach full saturation at lower concentrations, KD likely slightly underestimated
[3] = target: recombinant Hbl B (haemolysin BL binding component B) (Bacillus cereus strain F837/76) (UniProt P80172); test: SPR; BIACORE 3000; rHbl B amine-coupled to CM5 chip (500 RU); rHbl L2 injected 31.2 nM to 4 uM at 30 uL/min, 20 °C, in PBS, 1 mM DTT, 0.005% Tween 20; KD from steady state, mean of four experiments

| Substance | percent in elution fraction [1] | percent in sample flow-through [1] | percent in wash fraction [1] | Kd [2] | Kd [3] |
| --- | --- | --- | --- | --- | --- |
| Hbl L1 in culture supernatant of B. cereus strain MHI 1532 (natural protein) | 180% | < 5% | < 5% | – | – |
| Hbl L2 in culture supernatant of B. cereus strain MHI 1532 (natural protein) | 29% | 51% | 20% | – | – |
| recombinant Hbl B (haemolysin BL binding component B) (from UniProt P80172 32-375) (natural protein) | – | – | – | 470 nM | – |
| recombinant Hbl L2 (haemolysin BL component L2) (natural protein) | – | – | – | 150 nM | 3400 nM |
